{
  "source": "patent US20220042033A1",
  "about": "“COMPOSITION AND METHOD FOR CONFERRING AND/OR ENHANCING TOLERANCE AGAINST HERBICIDES BY USING VARIANTS OF PPO” (FarmHannong Co., Ltd., priority 2017, published 2022)",
  "molecules": {"B1": {"name": "V213C + Y422T: ApPPO1 (SEQ ID NO: 1) variant (protein)", "chain": "MPFTHLKPLNRLLGSPRARHPHVAPQAVSVTNTSTTRPGGRSSAPGIPGDAEYDVVIVGAGISGLTTAQALAKQYSDAVPRLLVTEARDCVGGNIITRRDGGYQWEEGPNSFQPSDAVLRAAVDAGVADRLVLGDPKAPRYVYWGGRLRATPSGPDVLTFDLLSLWGKLRAGLGAAGFKAPLPEREESVKEFVTRNLGEEVFQRLIEPFCSGCYAGDPAKLSMKAAFGKVYDLEKGGGSIVGGVLALMKARKQKPPEPRPADLPPKPKGQTVGSFDKGLVTLPSAIAEELGDRVVTGWKLESIDRSGDRFQLTYDTPQGRKKVSARSVALTVPAYTAASLLESRFPKLGKALSSIYYPPVASVALSYPETAILPERLGSDGHLAGFGQLHPRTQGVTTLGTIYASSLFPGRVPEGKVLLLSTFGGATNTRVATMPHGEIVSQVDKDLRKMLIRSDAESPHTVNVTVWPRAIPQFNVGHTDLIQEAKDDLASQGWQGLHLGGNYVAGVALGKCMEAGYKQAAELASHVKSLAT", "modifications": "Synthetic (Protoporphyrinogen IX oxidase (ApPPO1) of Auxenochlorella protothecoides)"}, "B2": {"name": "R140A + A215C + Y422I: ApPPO1 (SEQ ID NO: 1) variant (protein)", "chain": "B1 chain with R140A, C213V, A215C, T422I", "modifications": "Synthetic (Protoporphyrinogen IX oxidase (ApPPO1) of Auxenochlorella protothecoides)"}, "B3": {"name": "R140A + V213C + Y422I: ApPPO1 (SEQ ID NO: 1) variant (protein)", "chain": "B1 chain with R140A, T422I", "modifications": "Synthetic (Protoporphyrinogen IX oxidase (ApPPO1) of Auxenochlorella protothecoides)"}, "B4": {"name": "V213C + Y422I: ApPPO1 (SEQ ID NO: 1) variant (protein)", "chain": "B1 chain with T422I", "modifications": "Synthetic (Protoporphyrinogen IX oxidase (ApPPO1) of Auxenochlorella protothecoides)"}, "B5": {"name": "R140A + V213C + A215C + Y422I: ApPPO1 (SEQ ID NO: 1) variant (protein)", "chain": "B1 chain with R140A, A215C, T422I", "modifications": "Synthetic (Protoporphyrinogen IX oxidase (ApPPO1) of Auxenochlorella protothecoides)"}, "B6": {"name": "A215L + Y422T: ApPPO1 (SEQ ID NO: 1) variant (protein)", "chain": "B1 chain with C213V, A215L", "modifications": "Synthetic (Protoporphyrinogen IX oxidase (ApPPO1) of Auxenochlorella protothecoides)"}, "B7": {"name": "A215L + Y422I: ApPPO1 (SEQ ID NO: 1) variant (protein)", "chain": "B1 chain with C213V, A215L, T422I", "modifications": "Synthetic (Protoporphyrinogen IX oxidase (ApPPO1) of Auxenochlorella protothecoides)"}, "B8": {"name": "A215C + Y422T: ApPPO1 (SEQ ID NO: 1) variant (protein)", "chain": "B1 chain with C213V, A215C", "modifications": "Synthetic (Protoporphyrinogen IX oxidase (ApPPO1) of Auxenochlorella protothecoides)"}, "B9": {"name": "R140A + A215L + Y422M: ApPPO1 (SEQ ID NO: 1) variant (protein)", "chain": "B1 chain with R140A, C213V, A215L, T422M", "modifications": "Synthetic (Protoporphyrinogen IX oxidase (ApPPO1) of Auxenochlorella protothecoides)"}, "B10": {"name": "R140A + V213C + A215L + Y422M: ApPPO1 (SEQ ID NO: 1) variant (protein)", "chain": "B1 chain with R140A, A215L, T422M", "modifications": "Synthetic (Protoporphyrinogen IX oxidase (ApPPO1) of Auxenochlorella protothecoides)"}, "B11": {"name": "R140A + V213C + Y422M: ApPPO1 (SEQ ID NO: 1) variant (protein)", "chain": "B1 chain with R140A, T422M", "modifications": "Synthetic (Protoporphyrinogen IX oxidase (ApPPO1) of Auxenochlorella protothecoides)"}, "B12": {"name": "V213C + A215L + Y422M: ApPPO1 (SEQ ID NO: 1) variant (protein)", "chain": "B1 chain with A215L, T422M", "modifications": "Synthetic (Protoporphyrinogen IX oxidase (ApPPO1) of Auxenochlorella protothecoides)"}, "B13": {"name": "R140A + Y422I: ApPPO1 (SEQ ID NO: 1) variant (protein)", "chain": "B1 chain with R140A, C213V, T422I", "modifications": "Synthetic (Protoporphyrinogen IX oxidase (ApPPO1) of Auxenochlorella protothecoides)"}, "B14": {"name": "V213C + A215C + Y422I: ApPPO1 (SEQ ID NO: 1) variant (protein)", "chain": "B1 chain with A215C, T422I", "modifications": "Synthetic (Protoporphyrinogen IX oxidase (ApPPO1) of Auxenochlorella protothecoides)"}, "B15": {"name": "A215C + Y422I: ApPPO1 (SEQ ID NO: 1) variant (protein)", "chain": "B1 chain with C213V, A215C, T422I", "modifications": "Synthetic (Protoporphyrinogen IX oxidase (ApPPO1) of Auxenochlorella protothecoides)"}, "B16": {"name": "R140A + Y422T: ApPPO1 (SEQ ID NO: 1) variant (protein)", "chain": "B1 chain with R140A, C213V", "modifications": "Synthetic (Protoporphyrinogen IX oxidase (ApPPO1) of Auxenochlorella protothecoides)"}},
  "test_system": "ApPPO1",
  "experiment": "Herbicide tolerance test of ApPPO1 wild type and variants in PPO-deficient E. coli BT3(ΔPPO), growth on herbicide-containing LB agar",
  "format": "cell-based, Auxenochlorella protothecoides",
  "details": "relative to ApPPO1 WT, dark; for Herbicide tolerance, flumioxazin: up to 100 μM (FIGS. 7-12); for Herbicide tolerance, tiafenacil: up to 200 μM (FIGS. 7-12); for Herbicide tolerance, sulfentrazone: up to 400 μM (FIGS. 7-12)",
  "procedure": "Then, the extent of tolerance was evaluated.",
  "note": "Residue numbers refer to the chain shown, from its start. In names and notes the source's numbering stands.",
  "data": [
    {"molecule": "B1", "values": [
      {"measurement": "Herbicide tolerance, flumioxazin", "result": "+++++ (more than 10,000 fold higher tolerance)"},
      {"measurement": "Herbicide tolerance, tiafenacil", "result": "+++++ (more than 10,000 fold higher tolerance)"},
      {"measurement": "Herbicide tolerance, sulfentrazone", "result": "++++ (1,000-9,999 fold higher tolerance)"}
    ]},
    {"molecule": "B2", "values": [
      {"measurement": "Herbicide tolerance, flumioxazin", "result": "+++++ (more than 10,000 fold higher tolerance)"},
      {"measurement": "Herbicide tolerance, tiafenacil", "result": "+++++ (more than 10,000 fold higher tolerance)"},
      {"measurement": "Herbicide tolerance, sulfentrazone", "result": "++++ (1,000-9,999 fold higher tolerance)"}
    ]},
    {"molecule": "B3", "values": [
      {"measurement": "Herbicide tolerance, flumioxazin", "result": "+++++ (more than 10,000 fold higher tolerance)"},
      {"measurement": "Herbicide tolerance, tiafenacil", "result": "+++++ (more than 10,000 fold higher tolerance)"},
      {"measurement": "Herbicide tolerance, sulfentrazone", "result": "++++ (1,000-9,999 fold higher tolerance)"}
    ]},
    {"molecule": "B4", "values": [
      {"measurement": "Herbicide tolerance, flumioxazin", "result": "+++++ (more than 10,000 fold higher tolerance)"},
      {"measurement": "Herbicide tolerance, tiafenacil", "result": "++++ (1,000-9,999 fold higher tolerance)"},
      {"measurement": "Herbicide tolerance, sulfentrazone", "result": "+++ (100-999 fold higher tolerance)"}
    ]},
    {"molecule": "B5", "values": [
      {"measurement": "Herbicide tolerance, flumioxazin", "result": "+++++ (more than 10,000 fold higher tolerance)"},
      {"measurement": "Herbicide tolerance, tiafenacil", "result": "+++++ (more than 10,000 fold higher tolerance)"},
      {"measurement": "Herbicide tolerance, sulfentrazone", "result": "++++ (1,000-9,999 fold higher tolerance)"}
    ]},
    {"molecule": "B6", "values": [
      {"measurement": "Herbicide tolerance, flumioxazin", "result": "+ (1-9 fold higher tolerance)"},
      {"measurement": "Herbicide tolerance, tiafenacil", "result": "+ (1-9 fold higher tolerance)"},
      {"measurement": "Herbicide tolerance, sulfentrazone", "result": "++++ (1,000-9,999 fold higher tolerance)"}
    ]},
    {"molecule": "B7", "values": [
      {"measurement": "Herbicide tolerance, flumioxazin", "result": "++++ (1,000-9,999 fold higher tolerance)"},
      {"measurement": "Herbicide tolerance, tiafenacil", "result": "++++ (1,000-9,999 fold higher tolerance)"},
      {"measurement": "Herbicide tolerance, sulfentrazone", "result": "++++ (1,000-9,999 fold higher tolerance)"}
    ]},
    {"molecule": "B8", "values": [
      {"measurement": "Herbicide tolerance, flumioxazin", "result": "+++ (100-999 fold higher tolerance)"},
      {"measurement": "Herbicide tolerance, tiafenacil", "result": "+++ (100-999 fold higher tolerance)"},
      {"measurement": "Herbicide tolerance, sulfentrazone", "result": "+++ (100-999 fold higher tolerance)"}
    ]},
    {"molecule": "B9", "values": [
      {"measurement": "Herbicide tolerance, flumioxazin", "result": "+++++ (more than 10,000 fold higher tolerance)"},
      {"measurement": "Herbicide tolerance, tiafenacil", "result": "+++++ (more than 10,000 fold higher tolerance)"},
      {"measurement": "Herbicide tolerance, sulfentrazone", "result": "++++ (1,000-9,999 fold higher tolerance)"}
    ]},
    {"molecule": "B10", "values": [
      {"measurement": "Herbicide tolerance, flumioxazin", "result": "+++++ (more than 10,000 fold higher tolerance)"},
      {"measurement": "Herbicide tolerance, tiafenacil", "result": "+++++ (more than 10,000 fold higher tolerance)"},
      {"measurement": "Herbicide tolerance, sulfentrazone", "result": "++++ (1,000-9,999 fold higher tolerance)"}
    ]},
    {"molecule": "B11", "values": [
      {"measurement": "Herbicide tolerance, flumioxazin", "result": "+++++ (more than 10,000 fold higher tolerance)"},
      {"measurement": "Herbicide tolerance, tiafenacil", "result": "+++++ (more than 10,000 fold higher tolerance)"},
      {"measurement": "Herbicide tolerance, sulfentrazone", "result": "++++ (1,000-9,999 fold higher tolerance)"}
    ]},
    {"molecule": "B12", "values": [
      {"measurement": "Herbicide tolerance, flumioxazin", "result": "+++++ (more than 10,000 fold higher tolerance)"},
      {"measurement": "Herbicide tolerance, tiafenacil", "result": "+++++ (more than 10,000 fold higher tolerance)"},
      {"measurement": "Herbicide tolerance, sulfentrazone", "result": "++++ (1,000-9,999 fold higher tolerance)"}
    ]},
    {"molecule": "B13", "values": [
      {"measurement": "Herbicide tolerance, flumioxazin", "result": "+++++ (more than 10,000 fold higher tolerance)"},
      {"measurement": "Herbicide tolerance, tiafenacil", "result": "+++++ (more than 10,000 fold higher tolerance)"},
      {"measurement": "Herbicide tolerance, sulfentrazone", "result": "++++ (1,000-9,999 fold higher tolerance)"}
    ]},
    {"molecule": "B14", "values": [
      {"measurement": "Herbicide tolerance, flumioxazin", "result": "+++++ (more than 10,000 fold higher tolerance)"},
      {"measurement": "Herbicide tolerance, tiafenacil", "result": "+++++ (more than 10,000 fold higher tolerance)"},
      {"measurement": "Herbicide tolerance, sulfentrazone", "result": "++++ (1,000-9,999 fold higher tolerance)"}
    ]},
    {"molecule": "B15", "values": [
      {"measurement": "Herbicide tolerance, flumioxazin", "result": "+++++ (more than 10,000 fold higher tolerance)"},
      {"measurement": "Herbicide tolerance, tiafenacil", "result": "+++++ (more than 10,000 fold higher tolerance)"},
      {"measurement": "Herbicide tolerance, sulfentrazone", "result": "++++ (1,000-9,999 fold higher tolerance)"}
    ]},
    {"molecule": "B16", "values": [
      {"measurement": "Herbicide tolerance, flumioxazin", "result": "++++ (1,000-9,999 fold higher tolerance)"},
      {"measurement": "Herbicide tolerance, tiafenacil", "result": "++++ (1,000-9,999 fold higher tolerance)"},
      {"measurement": "Herbicide tolerance, sulfentrazone", "result": "+++ (100-999 fold higher tolerance)"}
    ]}
  ]
}
